T1: alpha-fetoprotein (AFP) (UniProt P02771 19-609)
T1 sequence: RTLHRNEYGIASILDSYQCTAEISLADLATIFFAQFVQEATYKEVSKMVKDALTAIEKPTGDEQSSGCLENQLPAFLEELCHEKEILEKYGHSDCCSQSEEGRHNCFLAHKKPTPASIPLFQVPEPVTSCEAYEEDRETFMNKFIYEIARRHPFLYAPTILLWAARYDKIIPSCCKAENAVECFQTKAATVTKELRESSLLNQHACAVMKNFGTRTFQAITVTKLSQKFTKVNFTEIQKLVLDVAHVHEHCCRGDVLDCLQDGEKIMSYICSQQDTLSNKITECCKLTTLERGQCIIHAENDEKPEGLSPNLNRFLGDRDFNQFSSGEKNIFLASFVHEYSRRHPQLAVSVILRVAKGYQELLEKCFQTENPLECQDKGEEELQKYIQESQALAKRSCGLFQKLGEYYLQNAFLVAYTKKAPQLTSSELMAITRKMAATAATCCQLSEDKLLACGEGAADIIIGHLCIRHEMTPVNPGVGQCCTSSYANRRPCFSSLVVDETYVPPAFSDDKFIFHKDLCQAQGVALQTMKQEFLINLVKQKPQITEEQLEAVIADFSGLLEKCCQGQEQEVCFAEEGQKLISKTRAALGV

B1: AP206 (ssDNA)
DNA: GTGACGCTCCTAACGCTGACTTTTAATTCTTGTTTATTGGTATATCCGCCTCTGACCTGTCCGTCCGAACCAATC
B2: AP244 (ssDNA)
DNA: GTGACGCTCCTAACGCTGACGGCCCGTCAATCCCCGCGTATCCATTGGTCCTTTACCTGTCCGTCCGAACCAATC
B3: AP250 (ssDNA)
DNA: GTGACGCTCCTAACGCTGACACAGTTGCTAAGAGCCGCCTCTGAACCTATCGAGGCCTGTCCGTCCGAACCAATC
B4: AP211 (ssDNA)
DNA: GTGACGCTCCTAACGCTGACTTTTTGGGAATGCGTATGTATGCTCGCCACGTACGCCTGTCCGTCCGAACCAATC
B5: AP273 (ssDNA)
DNA: GTGACGCTCCTAACGCTGACTCAGGTGCAGTTCTCGACTCGGTCTTGATGTGGGTCCTGTCCGTCCGAACCAATC

Target: T1, alpha-fetoprotein (AFP)
Assay: capillary electrophoresis (CE-LIF); CE-LIF: 10 uM FAM-aptamer with 100 ug/ml AFP, 25 C, PVA-coated capillary, -8 kV with 0.5 psi; CE buffer composition and pH not given in the material
Conditions: protein: commercial; label: 5' 6-FAM

| Binder | binding result | Kd |
| --- | --- | --- |
| B1 | binds | – |
| B2 | – | 4.8 µM |
| B3 | binds | – |
| B4 | no binding | – |
| B5 | – | 0.5 µM |

Source: PMC4620443, “Screening and Identifying a Novel ssDNA Aptamer against Alpha-fetoprotein Using CE-SELEX”
